± gives the uncertainty stated by the source.
B1: Steroid hormone receptor ERR2, residues 100 to 176; numbered along this chain, O95718 (parent)
chain: KRLCLVCGDIASGYHYGVASCEACKAFFKRTIQGNIEYSCPATNECEITKRRRKSCQACRFMKCLKVGMLKEGVRLD

Variants of: B1
Assay: abundance fitness (aPCA) (normalised: wild type 0, dead -1); higher = more abundant; growth selection in yeast, the domain comes from the species named
Conditions: Homo sapiens

Row | Variant | abundance fitness
1 | KRLCLVCGDIHSGYHYGVASCEACKAFFKRTIQGNIEYSCPATNECEITKRRRKSCQACRFMKCLKVGMLKEGVRLD | -0.691 ± 0.21
2 | KRLCLVCGDIISGYHYGVASCEACKAFFKRTIQGNIEYSCPATNECEITKRRRKSCQACRFMKCLKVGMLKEGVRLD | -0.377 ± 0.14
3 | KRLCLVCGDIKSGYHYGVASCEACKAFFKRTIQGNIEYSCPATNECEITKRRRKSCQACRFMKCLKVGMLKEGVRLD | -0.424 ± 0.077
4 | KRLCLVCGDILSGYHYGVASCEACKAFFKRTIQGNIEYSCPATNECEITKRRRKSCQACRFMKCLKVGMLKEGVRLD | -0.311 ± 0.063
5 | KRLCLVCGDIMSGYHYGVASCEACKAFFKRTIQGNIEYSCPATNECEITKRRRKSCQACRFMKCLKVGMLKEGVRLD | -0.103 ± 0.064
6 | KRLCLVCGDINSGYHYGVASCEACKAFFKRTIQGNIEYSCPATNECEITKRRRKSCQACRFMKCLKVGMLKEGVRLD | -0.153 ± 0.099
7 | KRLCLVCGDIPSGYHYGVASCEACKAFFKRTIQGNIEYSCPATNECEITKRRRKSCQACRFMKCLKVGMLKEGVRLD | -0.542 ± 0.14
8 | KRLCLVCGDIQSGYHYGVASCEACKAFFKRTIQGNIEYSCPATNECEITKRRRKSCQACRFMKCLKVGMLKEGVRLD | -0.217 ± 0.078
9 | KRLCLVCGDIRSGYHYGVASCEACKAFFKRTIQGNIEYSCPATNECEITKRRRKSCQACRFMKCLKVGMLKEGVRLD | -0.516 ± 0.067
10 | KRLCLVCGDISSGYHYGVASCEACKAFFKRTIQGNIEYSCPATNECEITKRRRKSCQACRFMKCLKVGMLKEGVRLD | 0.067 ± 0.051
11 | KRLCLVCGDITSGYHYGVASCEACKAFFKRTIQGNIEYSCPATNECEITKRRRKSCQACRFMKCLKVGMLKEGVRLD | -0.321 ± 0.091
12 | KRLCLVCGDIVSGYHYGVASCEACKAFFKRTIQGNIEYSCPATNECEITKRRRKSCQACRFMKCLKVGMLKEGVRLD | -0.289 ± 0.063
13 | KRLCLVCGDIYSGYHYGVASCEACKAFFKRTIQGNIEYSCPATNECEITKRRRKSCQACRFMKCLKVGMLKEGVRLD | -0.128 ± 0.092
14 | KRLCLVCGDIAAGYHYGVASCEACKAFFKRTIQGNIEYSCPATNECEITKRRRKSCQACRFMKCLKVGMLKEGVRLD | 0.031 ± 0.053
15 | KRLCLVCGDIACGYHYGVASCEACKAFFKRTIQGNIEYSCPATNECEITKRRRKSCQACRFMKCLKVGMLKEGVRLD | 0.155 ± 0.073
16 | KRLCLVCGDIADGYHYGVASCEACKAFFKRTIQGNIEYSCPATNECEITKRRRKSCQACRFMKCLKVGMLKEGVRLD | 0.022 ± 0.072
17 | KRLCLVCGDIAEGYHYGVASCEACKAFFKRTIQGNIEYSCPATNECEITKRRRKSCQACRFMKCLKVGMLKEGVRLD | -0.02 ± 0.062
18 | KRLCLVCGDIAGGYHYGVASCEACKAFFKRTIQGNIEYSCPATNECEITKRRRKSCQACRFMKCLKVGMLKEGVRLD | -0.023 ± 0.048

Row | Variant | abundance fitness
19 | KRLCLVCGDIAHGYHYGVASCEACKAFFKRTIQGNIEYSCPATNECEITKRRRKSCQACRFMKCLKVGMLKEGVRLD | 0.082 ± 0.072
20 | KRLCLVCGDIAIGYHYGVASCEACKAFFKRTIQGNIEYSCPATNECEITKRRRKSCQACRFMKCLKVGMLKEGVRLD | -0.327 ± 0.14
21 | KRLCLVCGDIALGYHYGVASCEACKAFFKRTIQGNIEYSCPATNECEITKRRRKSCQACRFMKCLKVGMLKEGVRLD | -0.156 ± 0.053
22 | KRLCLVCGDIAMGYHYGVASCEACKAFFKRTIQGNIEYSCPATNECEITKRRRKSCQACRFMKCLKVGMLKEGVRLD | -0.118 ± 0.063
23 | KRLCLVCGDIANGYHYGVASCEACKAFFKRTIQGNIEYSCPATNECEITKRRRKSCQACRFMKCLKVGMLKEGVRLD | -0.019 ± 0.087
24 | KRLCLVCGDIAPGYHYGVASCEACKAFFKRTIQGNIEYSCPATNECEITKRRRKSCQACRFMKCLKVGMLKEGVRLD | -0.161 ± 0.087
25 | KRLCLVCGDIAQGYHYGVASCEACKAFFKRTIQGNIEYSCPATNECEITKRRRKSCQACRFMKCLKVGMLKEGVRLD | 0.115 ± 0.068
26 | KRLCLVCGDIARGYHYGVASCEACKAFFKRTIQGNIEYSCPATNECEITKRRRKSCQACRFMKCLKVGMLKEGVRLD | -0.026 ± 0.047
27 | KRLCLVCGDIATGYHYGVASCEACKAFFKRTIQGNIEYSCPATNECEITKRRRKSCQACRFMKCLKVGMLKEGVRLD | -0.138 ± 0.06
28 | KRLCLVCGDIAVGYHYGVASCEACKAFFKRTIQGNIEYSCPATNECEITKRRRKSCQACRFMKCLKVGMLKEGVRLD | 0.029 ± 0.051
29 | KRLCLVCGDIAWGYHYGVASCEACKAFFKRTIQGNIEYSCPATNECEITKRRRKSCQACRFMKCLKVGMLKEGVRLD | -0.253 ± 0.083
30 | KRLCLVCGDIAYGYHYGVASCEACKAFFKRTIQGNIEYSCPATNECEITKRRRKSCQACRFMKCLKVGMLKEGVRLD | -0.32 ± 0.12
31 | KRLCLVCGDIASAYHYGVASCEACKAFFKRTIQGNIEYSCPATNECEITKRRRKSCQACRFMKCLKVGMLKEGVRLD | -0.751 ± 0.17
32 | KRLCLVCGDIASCYHYGVASCEACKAFFKRTIQGNIEYSCPATNECEITKRRRKSCQACRFMKCLKVGMLKEGVRLD | -0.947 ± 0.29
33 | KRLCLVCGDIASDYHYGVASCEACKAFFKRTIQGNIEYSCPATNECEITKRRRKSCQACRFMKCLKVGMLKEGVRLD | -0.02 ± 0.092
34 | KRLCLVCGDIASFYHYGVASCEACKAFFKRTIQGNIEYSCPATNECEITKRRRKSCQACRFMKCLKVGMLKEGVRLD | -0.27 ± 0.16
35 | KRLCLVCGDIASHYHYGVASCEACKAFFKRTIQGNIEYSCPATNECEITKRRRKSCQACRFMKCLKVGMLKEGVRLD | -0.759 ± 0.46
36 | KRLCLVCGDIASIYHYGVASCEACKAFFKRTIQGNIEYSCPATNECEITKRRRKSCQACRFMKCLKVGMLKEGVRLD | 0.038 ± 0.17
